Changes are numbered by the printed parent chain.

The target of test [1] is T1, GST fusion of VPAC1 extracellular loop 3 (human).
T1 construct: also called isolated extracellular loop 3 of the VPAC1 receptor; not shown: glutathione-S-transferase (GST)
T1 chain: PDNFKPEVKMLFE
Kind of test: western blot on GST fusion of extracellular loop 3.

Test [2] concerns the target T2, GST fusion of VPAC1 extracellular loop 2 (human).
T2 construct: also called isolated extracellular loop 2 of the VPAC1 receptor; not shown: glutathione-S-transferase (GST)
T2 chain: IHFEDYGCWDTINSSLWW
Kind of test: western blot on GST fusion of extracellular loop 2.

Test [3] concerns the target T3, GST fusion of VPAC1 variant 4-2 (amino acids 231-457 of SEQ ID NO:15) (human, UniProt P32241 231-457).
T3 construct: not shown: GST carrier and the pGEX vector linker
T3 sequence: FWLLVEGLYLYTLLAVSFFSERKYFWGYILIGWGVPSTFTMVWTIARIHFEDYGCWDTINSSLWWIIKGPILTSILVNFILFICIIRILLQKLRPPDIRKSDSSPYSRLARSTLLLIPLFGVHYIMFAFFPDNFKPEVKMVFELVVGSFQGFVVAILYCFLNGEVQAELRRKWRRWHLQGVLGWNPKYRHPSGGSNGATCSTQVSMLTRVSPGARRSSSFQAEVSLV
Kind of test: western blot on GST-fused VPAC1 deletion variants. As to the method:
(§1) For the epitope mapping of 23A11, several VPAC1 deletion variants were fused to GST and expressed. Binding of 23A11 to the VPAC1 deletion variants was tested by western blotting.
(§2) VPAC1 variant 4-2 (and, to a lesser extent, variant 3-2) was recognized by 23A11. Since this protein contains the second as well as the third extracellular loop of VPAC1, both loops (extracellular loop 2: SEQ ID NO:1; extracellular loop 3:SEQ ID NO:1) were made as GST fusion proteins and tested in western blotting. The murine antibody 23A11 was binding to each of these loops.

The target of test [4] is T4, GST fusion of VPAC1 variant 3-2 (amino acids 123-457 of SEQ ID NO:15) (human, UniProt P32241 123-457).
T4 construct: not shown: GST carrier and the pGEX vector linker
T4 sequence: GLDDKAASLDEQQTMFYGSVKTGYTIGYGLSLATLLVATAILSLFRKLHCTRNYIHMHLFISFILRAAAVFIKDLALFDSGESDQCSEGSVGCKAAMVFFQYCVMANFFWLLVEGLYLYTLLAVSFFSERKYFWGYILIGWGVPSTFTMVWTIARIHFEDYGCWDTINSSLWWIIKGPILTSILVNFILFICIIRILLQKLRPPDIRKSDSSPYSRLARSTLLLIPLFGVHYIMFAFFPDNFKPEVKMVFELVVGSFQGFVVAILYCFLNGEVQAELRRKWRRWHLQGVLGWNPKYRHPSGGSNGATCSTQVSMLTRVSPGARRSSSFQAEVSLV
As to the kind of experiment: western blot on GST-fused VPAC1 deletion variants. As to the method: as §1, §2

For test [5], the target named is T5, GST-VPAC1 fusion protein (full length human VPAC1) (human, UniProt P08515 1-218 = GST).
T5 construct: also called recombinant VPAC1
As to the kind of experiment: SPR (BIAcore 1000), GST-VPAC1 immobilised on CM5, antibody injected, 1:1 Langmuir fit; first batch; first of two batches of murine 23A11. As to the method: (§3) For kinetic binding analysis of GST-VPAC1 with the GST-VPAC1-antibodies, we used a BIAcore surface plasmon resonance system at 25° C. These interactions were performed on a BIAcore 1000. GST-VPAC1 was covalently immobilized on a CM5 sensorchip (carboxylated dextran matrix) after activation with a 1:1 mixture of 1-ethyl-3-(3-dimethylaminopropyl)carbodiimide and N-hydroxysuccinimide. The remaining active sites on the chip were blocked by 1.0 M ethanolamine-HCl at pH 8.5. To perform binding assays with the GST-VPAC1-antibodies, various concentrations (ranging from 250 nm to 5 nm) of murine 23A11 were injected over the immobilized GST-VPAC-1 at a flow rate of 30 μl/min. This was performed in a running buffer consisting of 0.01 M HEPES at pH 7.4, 0.15M NaCl, 3 mM EDTA and 0.005% Surfactant P20 (or Tween 20). The sensorgrams were evaluated using the BIAevaluation 4.1 software. The rate constants kₐ and kd and the dissociation constant KD were determined by using a global fit with a Langmuir 1:1 binding model with baseline drift.

Test [6] addresses T5, GST-VPAC1 fusion protein (full length …). As to the kind of experiment: SPR (BIAcore 1000), GST-VPAC1 immobilised on CM5, antibody injected, 1:1 Langmuir fit; second batch; second of two batches of murine 23A11. As to the method: as §3
For test [7], the target named is T6, VPAC1 receptor of mouse bone marrow-derived CD41/61+ megakaryocytes (mouse, UniProt P97751 31-459).
T6 construct: whole, on cells; Detected by immunoblot of megakaryocytes and addressed on living megakaryocytes in the cAMP assays; also called VPAC1 receptor on the murine megakaryocytes
T6 sequence (looked up): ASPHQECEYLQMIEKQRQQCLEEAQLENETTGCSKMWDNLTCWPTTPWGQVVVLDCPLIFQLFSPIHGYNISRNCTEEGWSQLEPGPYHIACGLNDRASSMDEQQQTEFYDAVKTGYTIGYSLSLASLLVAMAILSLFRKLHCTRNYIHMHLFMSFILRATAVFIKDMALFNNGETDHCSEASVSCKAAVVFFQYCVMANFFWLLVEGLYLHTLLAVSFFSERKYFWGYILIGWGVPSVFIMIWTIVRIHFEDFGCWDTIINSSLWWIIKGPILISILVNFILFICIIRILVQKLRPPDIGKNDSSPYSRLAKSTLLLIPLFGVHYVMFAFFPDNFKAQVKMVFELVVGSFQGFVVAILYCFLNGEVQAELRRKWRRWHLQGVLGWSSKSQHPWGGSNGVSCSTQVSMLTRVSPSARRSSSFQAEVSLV
Kind of test: immunoblot of mouse bone marrow megakaryocytes.

Test [8] concerns the target T5, GST-VPAC1 fusion protein (full length …). Kind of test: SPR (BIAcore 1000), GST-VPAC1 immobilised on CM5, 1:1 Langmuir fit; humanized 23A11, isotype not stated.

B1: murine anti-VPAC1 monoclonal antibody 23A11 (antibody, V domains shown)
VH: EVQLQESGPSLVKPSQTLSLTCSVTGDSITSGYWNWIRKFPGNKLEYMGYIRYSGSTYYSPALKSRFSITRDTSKNQYYLQLNSVTTEDTATYYCSNWAYWGQGTLVTVSA
VL: DIVITQDELSNPVTSGESVSISCRSSKSLLYKDGKTYLNWFLQRPGQSPQLLIYLMSTRASGVSDRFSGSGSGTDFTLEISRVKAEDVGVYYCQQLVEYPLTFGAGTKLELK
notes: Mouse monoclonal antibody from a hybridoma; also called murine 23A11; anti-VPAC1 receptor antibody 23A11
Regarding B1, the binding result in test [1], in test [2], in test [3], in test [4] and in test [7] was “binds” throughout. In addition, the Kd in test [5] worked out at 28.3 nM; in test [6], 19.9 nM.

B2: humanized anti-VPAC1 monoclonal antibody 23A11 (antibody, V domains shown)
VH: EVQLQESGPGLVKPSQTLSLTCTVSGDSITSGYWNWIRKHPGKGLEYMGYIRYSGSTYYSPSLKSRFTISRDTSKNQYSLKLSSVTAADTATYYCSNWAYWGQGTLVTVSA
VL: B1 VL with D7S, E8P, N11L, S15P, S18P, E79K, K84E, A105Q, L111I
notes: also called h23A11; rhu23A11
With B2, the Kd in test [8] is 9.82 nM.

These data come from patent publication US20100104530A1 (published 2010).
